B1: FEM1A (parent)
chain: PCCSSSPEEPLNGESYESCCPTSR

Variants of: B1
Test: protein stability index of a GFP-peptide fusion (GPS, HEK-293T) (PSI 1-6); higher = more stable
Conditions: c terminus: a fixed tail appended
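Further: lentivirally expressed fusions sorted by FACS into six bins by GFP to DsRed ratio, PSI derived from sequencing read proportions per bin multiplied by bin number.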

In order of falling protein stability index:
1. PCCSSSPEEPLNGESYESCCPTSS [R24S]  5.27
2. PCCSSSPEEPLNGESYESCCPTSD [R24D]  5.19
3. PCCSSSPEEPLNGESYESCCPTSG [R24G]  5.14
4. PCCSSSPEEPLNGESYESCCPTSQ [R24Q]  5.08
5. PCCSSSPEEPLNGESYESCCPTSE [R24E]  5.04
6. PCCSSSPEEPLNGESYESCCPTST [R24T]  4.97
7. PCCSSSPEEPLNGESYESCCPTSN [R24N]  4.96
8. PCCSSSPEEPLNGESYESCCPTSP [R24P]  4.81
9. PCCSSSPEEPLNGESYESCCPTSA [R24A]  4.81
10. PCCSSSPEEPLNGESYESCCPTSL [R24L]  4.81
11. PCCSSSPEEPLNGESYESCCPTSF [R24F]  4.78
12. PCCSSSPEEPLNGESYESCCPTSH [R24H]  4.75
13. PCCSSSPEEPLNGESYESCCPTSK [R24K]  4.75
14. PCCSSSPEEPLNGESYESCCPTSM [R24M]  4.6
15. PCCSSSPEEPLNGESYESCCPTSI [R24I]  4.39
16. PCCSSSPEEPLNGESYESCCPTSV [R24V]  4.34
17. PCCSSSPEEPLNGESYESCCPTSC [R24C]  4.33
18. PCCSSSPEEPLNGESYESCCPTQR [S23Q]  4.31
19. PCCSSSPEEPLNGESYESCCPTSY [R24Y]  4.25
20. PCCSSSPEEPLNGESYESCCPTKR [S23K]  4.18
21. PCCSSSPEEPLNGESYESCCPTTR [S23T]  4.13
22. PCCSSSPEEPLNGESYESCCPTNR [S23N]  4.1
23. PCCSSSPEEPLNGESYESCCPTMR [S23M]  4.05
24. PCCSSSPEEPLNGESYESCCPTLR [S23L]  3.86
25. PCCSSSPEEPLNGESYESCCPTPR [S23P]  3.52
26. PCCSSSPEEPLNGESYESCCPTWR [S23W]  3.43
27. PCCSSSPEEPLNGESYESCCPTYR [S23Y]  3.09
28. PCCSSSPEEPLNGESYESCCPTVR [S23V]  3.07
29. PCCSSSPEEPLNGESYESCCPTSW [R24W]  3.05
30. PCCSSSPEEPLNGESYESCCPTRR [S23R]  2.95

— the supplement of paper PMC10567573
